Earlier results as cited in patent publication US9453050B2, “Compositions for treating glioma” (GLIA SP Z.O.O., priority 2011, dated 2016).

Tests used:
[1] = target: T1, low affinity receptor (GM-CSFRα alone) (Homo sapiens, UniProt P15509); conditions: VonFeldt et al.; cited from earlier work
T1 sequence (P15509 23-400): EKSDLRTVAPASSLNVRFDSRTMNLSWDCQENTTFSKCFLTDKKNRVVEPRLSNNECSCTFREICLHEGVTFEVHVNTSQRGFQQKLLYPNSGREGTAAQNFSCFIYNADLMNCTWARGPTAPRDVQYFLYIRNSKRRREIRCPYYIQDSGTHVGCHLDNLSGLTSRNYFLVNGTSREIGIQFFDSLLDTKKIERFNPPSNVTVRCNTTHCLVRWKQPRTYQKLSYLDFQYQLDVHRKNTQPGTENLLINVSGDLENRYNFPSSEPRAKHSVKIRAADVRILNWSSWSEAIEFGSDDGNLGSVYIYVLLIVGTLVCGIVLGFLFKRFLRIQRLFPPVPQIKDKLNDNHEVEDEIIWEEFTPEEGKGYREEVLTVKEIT

[2] = target: T2, high affinity receptor (GM-CSFRα.βc complex) (Homo sapiens, UniProt P15509+P32927); conditions: VonFeldt et al.; cited from earlier work
T2 sequence (P15509 23-400): T1 sequence (P15509 23-400)
T2 sequence (P32927 17-897): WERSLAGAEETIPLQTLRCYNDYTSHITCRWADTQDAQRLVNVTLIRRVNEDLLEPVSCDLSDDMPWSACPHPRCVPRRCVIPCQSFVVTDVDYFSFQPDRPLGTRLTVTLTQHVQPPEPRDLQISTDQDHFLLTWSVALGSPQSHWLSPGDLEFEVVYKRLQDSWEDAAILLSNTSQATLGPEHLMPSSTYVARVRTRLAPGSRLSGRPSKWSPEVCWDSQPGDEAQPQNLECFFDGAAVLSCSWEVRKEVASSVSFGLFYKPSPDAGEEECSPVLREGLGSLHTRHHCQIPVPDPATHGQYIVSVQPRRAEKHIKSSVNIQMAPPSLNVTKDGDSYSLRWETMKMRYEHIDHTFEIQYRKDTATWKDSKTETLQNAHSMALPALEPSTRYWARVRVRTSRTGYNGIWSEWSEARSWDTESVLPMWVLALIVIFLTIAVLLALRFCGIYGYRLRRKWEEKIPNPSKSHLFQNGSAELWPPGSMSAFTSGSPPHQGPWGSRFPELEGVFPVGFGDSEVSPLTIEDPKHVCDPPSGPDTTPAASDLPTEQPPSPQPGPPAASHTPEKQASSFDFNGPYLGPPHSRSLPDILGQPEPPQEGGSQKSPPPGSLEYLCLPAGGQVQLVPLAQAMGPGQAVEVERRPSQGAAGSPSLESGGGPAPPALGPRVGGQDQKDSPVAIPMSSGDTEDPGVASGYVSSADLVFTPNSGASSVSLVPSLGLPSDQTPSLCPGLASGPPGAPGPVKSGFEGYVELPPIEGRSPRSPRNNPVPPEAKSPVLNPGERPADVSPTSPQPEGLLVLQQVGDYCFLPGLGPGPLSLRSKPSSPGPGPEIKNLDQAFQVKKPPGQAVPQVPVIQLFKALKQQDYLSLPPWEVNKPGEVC

Row | Substance | low affinity receptor binding [1] | high affinity receptor binding [2]
1 | peptide consisting of amino acids 54-78 (B and C helices): linear peptide analog of GM-CSF, VonFeldt et al. (CLQTRLELYKQGLRGSLTKLKGPLT; UniProt P04141 71-95, looked up, fragment) | inhibits | 
2 | amino acids 17-31 (the A helix) of GM-CSF: linear peptide analog of GM-CSF, VonFeldt et al. (NAIQEARRLLNLSRD; UniProt P04141 34-48, looked up, fragment) |  | inhibits
